The text below walks through data of IntAct's records for PubMed 14673118.

To fix the notation:
B1: Thioredoxin (Synechocystis sp. (strain PCC 6803 / Kazusa)), P52231 (parent)
chain: MSATPQVSDASFKEDVLDSELPVLVDFWAPWCGPCRMVAPVVDEISQQYEGKVKVVKLNTDENPNTASQYGIRSIPTLMIFKGGQRVDMVVGAVPKTTLASTLEKYL
partner: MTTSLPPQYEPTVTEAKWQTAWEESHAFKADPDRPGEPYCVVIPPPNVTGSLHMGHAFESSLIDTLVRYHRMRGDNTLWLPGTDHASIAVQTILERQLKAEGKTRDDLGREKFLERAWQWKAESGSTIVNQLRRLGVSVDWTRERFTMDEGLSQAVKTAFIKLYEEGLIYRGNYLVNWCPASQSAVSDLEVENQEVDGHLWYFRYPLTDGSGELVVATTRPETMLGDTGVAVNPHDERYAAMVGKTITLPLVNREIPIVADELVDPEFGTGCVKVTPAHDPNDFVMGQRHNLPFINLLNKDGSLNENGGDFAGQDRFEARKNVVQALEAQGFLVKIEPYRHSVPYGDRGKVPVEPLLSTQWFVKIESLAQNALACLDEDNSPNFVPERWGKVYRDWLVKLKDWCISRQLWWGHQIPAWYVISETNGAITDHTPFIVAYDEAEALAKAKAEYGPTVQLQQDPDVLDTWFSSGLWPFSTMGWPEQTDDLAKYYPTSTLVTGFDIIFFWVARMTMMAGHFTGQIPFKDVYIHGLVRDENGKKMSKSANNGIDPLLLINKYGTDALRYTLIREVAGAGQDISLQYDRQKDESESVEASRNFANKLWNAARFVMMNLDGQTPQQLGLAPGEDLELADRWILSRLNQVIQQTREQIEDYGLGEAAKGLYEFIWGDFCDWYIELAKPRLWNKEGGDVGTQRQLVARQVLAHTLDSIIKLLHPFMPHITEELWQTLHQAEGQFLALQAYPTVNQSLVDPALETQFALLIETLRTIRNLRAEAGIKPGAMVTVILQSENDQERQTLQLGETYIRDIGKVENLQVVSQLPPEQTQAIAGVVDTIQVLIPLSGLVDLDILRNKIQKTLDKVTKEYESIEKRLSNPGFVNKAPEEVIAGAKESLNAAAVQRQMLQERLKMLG
B2: Thioredoxin (Synechocystis sp. (strain PCC 6803 / Kazusa)), P52231 (parent)
chain: B1 chain
partner: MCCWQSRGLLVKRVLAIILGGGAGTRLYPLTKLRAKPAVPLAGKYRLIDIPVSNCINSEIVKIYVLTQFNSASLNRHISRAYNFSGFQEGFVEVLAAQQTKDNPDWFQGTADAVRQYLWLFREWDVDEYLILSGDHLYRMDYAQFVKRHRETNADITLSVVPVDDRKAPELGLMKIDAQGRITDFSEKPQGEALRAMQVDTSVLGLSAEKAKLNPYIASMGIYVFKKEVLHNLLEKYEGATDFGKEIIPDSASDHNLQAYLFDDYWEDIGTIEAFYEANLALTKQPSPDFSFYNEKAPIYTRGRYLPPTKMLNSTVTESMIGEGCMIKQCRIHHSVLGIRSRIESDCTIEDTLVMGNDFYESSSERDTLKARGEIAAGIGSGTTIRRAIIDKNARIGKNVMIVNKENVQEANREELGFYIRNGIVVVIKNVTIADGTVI
B3: Thioredoxin (Synechocystis sp. (strain PCC 6803 / Kazusa)), P52231 (parent)
chain: B1 chain
partner: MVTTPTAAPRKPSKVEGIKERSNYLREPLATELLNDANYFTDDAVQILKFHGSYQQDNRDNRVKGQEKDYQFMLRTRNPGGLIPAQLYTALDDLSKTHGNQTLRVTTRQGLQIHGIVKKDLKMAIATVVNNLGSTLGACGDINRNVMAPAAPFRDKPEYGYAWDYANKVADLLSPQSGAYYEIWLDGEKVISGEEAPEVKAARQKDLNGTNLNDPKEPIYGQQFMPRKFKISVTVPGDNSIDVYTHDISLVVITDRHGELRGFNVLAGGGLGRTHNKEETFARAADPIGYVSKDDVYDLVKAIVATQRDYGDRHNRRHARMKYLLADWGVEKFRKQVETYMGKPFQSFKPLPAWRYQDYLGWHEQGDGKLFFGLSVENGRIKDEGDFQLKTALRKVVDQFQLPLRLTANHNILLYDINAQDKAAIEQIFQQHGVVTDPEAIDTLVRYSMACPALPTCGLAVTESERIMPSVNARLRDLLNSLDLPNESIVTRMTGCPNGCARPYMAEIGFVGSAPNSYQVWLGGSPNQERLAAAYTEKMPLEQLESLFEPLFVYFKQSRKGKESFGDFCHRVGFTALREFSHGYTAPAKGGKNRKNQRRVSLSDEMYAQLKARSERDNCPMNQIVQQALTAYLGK
B4: Thioredoxin (Synechocystis sp. (strain PCC 6803 / Kazusa)), P52231 (parent)
chain: B1 chain
partner: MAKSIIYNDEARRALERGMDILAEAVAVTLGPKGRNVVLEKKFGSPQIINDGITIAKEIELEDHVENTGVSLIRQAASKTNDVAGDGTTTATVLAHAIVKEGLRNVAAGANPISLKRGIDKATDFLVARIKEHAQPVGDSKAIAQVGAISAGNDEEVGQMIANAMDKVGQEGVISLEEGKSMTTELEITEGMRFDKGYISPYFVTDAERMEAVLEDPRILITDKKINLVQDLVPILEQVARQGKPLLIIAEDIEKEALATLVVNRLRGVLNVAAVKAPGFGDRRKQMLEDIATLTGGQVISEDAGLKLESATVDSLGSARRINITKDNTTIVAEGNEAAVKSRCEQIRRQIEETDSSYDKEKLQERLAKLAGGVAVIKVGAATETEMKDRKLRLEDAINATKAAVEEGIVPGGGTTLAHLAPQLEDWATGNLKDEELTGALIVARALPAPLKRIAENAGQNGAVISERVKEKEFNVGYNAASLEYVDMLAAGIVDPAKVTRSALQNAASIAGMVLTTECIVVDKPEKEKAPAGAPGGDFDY
B5: Thioredoxin (Synechocystis sp. (strain PCC 6803 / Kazusa)), P52231 (parent)
chain: B1 chain
partner: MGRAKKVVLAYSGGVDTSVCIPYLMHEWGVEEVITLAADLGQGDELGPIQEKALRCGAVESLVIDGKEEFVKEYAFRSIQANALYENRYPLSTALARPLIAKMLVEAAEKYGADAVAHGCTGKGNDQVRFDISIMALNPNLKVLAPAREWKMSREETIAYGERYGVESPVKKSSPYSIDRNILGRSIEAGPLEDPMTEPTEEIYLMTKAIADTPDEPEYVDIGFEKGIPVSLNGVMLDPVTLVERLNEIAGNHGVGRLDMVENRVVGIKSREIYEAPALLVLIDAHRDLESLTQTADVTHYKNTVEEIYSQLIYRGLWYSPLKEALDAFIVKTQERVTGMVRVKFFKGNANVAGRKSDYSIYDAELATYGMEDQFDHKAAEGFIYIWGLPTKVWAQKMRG
B6: Thioredoxin (Synechocystis sp. (strain PCC 6803 / Kazusa)), P52231 (parent)
chain: B1 chain
partner: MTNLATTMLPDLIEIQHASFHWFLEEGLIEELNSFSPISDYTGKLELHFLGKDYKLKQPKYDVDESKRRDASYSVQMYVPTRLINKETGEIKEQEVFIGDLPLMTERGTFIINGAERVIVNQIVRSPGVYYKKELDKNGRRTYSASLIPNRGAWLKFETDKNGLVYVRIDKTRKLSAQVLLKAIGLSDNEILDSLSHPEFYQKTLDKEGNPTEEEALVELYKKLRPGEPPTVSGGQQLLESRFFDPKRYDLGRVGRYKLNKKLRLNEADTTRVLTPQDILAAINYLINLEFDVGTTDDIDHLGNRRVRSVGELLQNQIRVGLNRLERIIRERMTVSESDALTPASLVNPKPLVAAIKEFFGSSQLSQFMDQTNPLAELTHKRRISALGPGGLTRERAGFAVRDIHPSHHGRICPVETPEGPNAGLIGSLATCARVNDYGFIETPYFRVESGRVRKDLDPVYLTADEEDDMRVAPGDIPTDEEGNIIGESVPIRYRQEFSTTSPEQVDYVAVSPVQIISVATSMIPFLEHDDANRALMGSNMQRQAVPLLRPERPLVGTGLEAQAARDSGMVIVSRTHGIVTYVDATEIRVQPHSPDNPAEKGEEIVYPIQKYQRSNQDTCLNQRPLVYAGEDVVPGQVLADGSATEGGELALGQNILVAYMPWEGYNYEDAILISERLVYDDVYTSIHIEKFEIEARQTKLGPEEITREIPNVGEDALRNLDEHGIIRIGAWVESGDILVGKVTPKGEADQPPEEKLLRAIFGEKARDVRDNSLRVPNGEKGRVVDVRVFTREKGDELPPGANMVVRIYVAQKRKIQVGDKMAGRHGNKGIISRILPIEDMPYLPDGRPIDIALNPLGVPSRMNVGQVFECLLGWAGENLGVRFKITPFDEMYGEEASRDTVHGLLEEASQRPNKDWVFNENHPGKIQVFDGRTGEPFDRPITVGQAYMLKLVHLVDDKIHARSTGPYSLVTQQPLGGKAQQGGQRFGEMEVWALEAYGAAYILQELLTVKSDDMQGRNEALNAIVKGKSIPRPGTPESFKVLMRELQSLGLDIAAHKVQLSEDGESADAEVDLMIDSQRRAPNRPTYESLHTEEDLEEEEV

The variants in the first experiment derive from B1. The settings on record: with syv_syny3 valS.
As for C35S, the “effect of a mutation on the interaction” value is “increasing interaction”.

In another experiment the parent is B2. The note with it: with glgc_syny3 glgC.
For the variant C35S, the “effect of a mutation on the interaction” value is given as “increasing interaction”.

The variants in the next experiment derive from B3. The settings on record: with sir_syny3 sir.
In the case of C35S, the “effect of a mutation on the interaction” value was “increasing interaction”.

Variants of B4 are the subject of a further experiment. The note with it: with ch601_syny3 groEL1, Q05972.
Regarding C35S, the “effect of a mutation on the interaction” value is listed as “increasing interaction”.

Variants of B5 are the subject of a further experiment. The note with it: with assy_syny3 argG.
Regarding C35S, the “effect of a mutation on the interaction” value was “increasing interaction”.

The variants in the next experiment derive from B6. The note with it: with rpob_syny3 rpoB.
Regarding C35S, the “effect of a mutation on the interaction” value is “increasing interaction”.
